Results published in the domain aggregation screens of Martell et al. (2025).

Test: soluble fraction after stress (log2 fold change); higher = more stays soluble; pooled small domains, quantitative proteomics
Details: stress: pH 4
Procedure, shortened: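 Values are log2 fold changes, and higher ones mean more of the domain stayed soluble. Each fold change reflects the soluble amount of a domain after acid stress and is taken as a measure of aggregation propensity. The stress was pH 4, applied to pooled custom libraries of small protein domains analysed by high-throughput quantitative proteomics.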

Sequence | soluble fraction (log2)
HMQYDALVLNLLQEKNLTSESLKDAQRAFAKSHNLSTLPSKSQILQAYFQLLEQGKIEKNPDFELLL | 0.0152
HMEINEDEIYEKIMIEIEQDNKVKSTWAKALSQSDGNKDKAESLYISMRFEELKYHQSYQKEELNLKDNQQ | -0.989
HMTMQQGTISRLNHSRGFGFLTTPDGEDLFFHRTNVHETPFARLQVGDRVTYDVQVTPRGTRADKVQLNM | -0.222
HMQSFIEELLPVVDNFERSLAVVDPSDEIKNFLKGYEMIYNQLMEVLKSQGVEVIKTEGEEFDPNFHQA | -0.776
HMDEFEEGVITYFNSEKGFGFIRESKTKQSVFVHSKQLSSPVQLNDKVKFIVNKGLKGLEATEVSVI | ≥ 0.43
HMRNEFEAHSDGTRIQLNDRSKATFSVYDVQGRLIHSFQDFSGSSFNIEPKNQLLIITRETAEGVSVKKLV | -0.322
HMEPFEQLLDRITSQTGKEPEEVVARMNELITERFDGNIRPEAALVIVAKRDNIQFMDLLDQLKQALL | -0.907
HMTEKQYIYSIGDRVNIGTDEFEIVNINEKEVSIADVTFPMLVKQISYEEFDRKVKENPFNDHLII | -1.25
HMTHAISKTYAVTGEQLKNGFTLTHTFANGSTRRVDVYPGSRSGKVIAVRNTTDDTTEWIRIVEG | -0.0152
HMDLPGIVTETDRQRADLAARIGAAKVEAVLAGGARSVEADEDFDADTRRELHQFLTRMARRAFLEER | -0.722
HMPGLQSVTPAELKIGMYVILPLAWDEHPFLKNHFLIQSEAQINKIRELGTKGIQIDLSKSHP | 0.0126
HMRTPTGVQAYLSSGLIKGIGEKTAAAIVDKFGTDALSVIETDPERLLEIPGITPNKLREILESYNQH | 0.174
HMSQDEVVADMKADLGPDADNIIRSNIQWADGLVRKGILTESEREELDVMGGTPEAQRILVKLRTMQG | -0.539
HMAVSGRGSIIGGVATVLDDFADSGKVWLEGEAWQARSSVPLKQDQEVVVRAMDGLVLVVEPVA | -0.869
HMAVLGIQPVFHRSTGQTVYKSSVNTAKGRVYLGLFPTLTEALEIKLKYMQEHGHTKGITNLTNKLKEL | 0.22
HMQVFDSNEIDEVVKKVIENNPQAVADFKKGKSNALQFLAGQVMRETKGRFNPNVVQERIRLLLT | 0.256
HMNRPYVELFSGLGQEEAQQIVQKLQEDEVDYKFSGDSTILVKEDVVDQTKATLVQEGYPKS | -0.392
HMEDPVAQEARAAFEVGRLLAAATGPVTLAAIRRAIDLPEERLEEILRRLEESGAVRRARDGWLPG | -0.269
HMRYNPETTAGRRGLIIKMLDEYGQVNVNELSRYFNVSEVTVRNDLAYLERKNLLIRARGGAIKTE | 0.0289
HMRISMRDQVYEIIKNRILSREYSLGEPINIVHLSKELGISNTPIREALSQLETERLITINSNQKYHVT | -0.0135
HMVKLDDLTGQDKATAEATITNSGLKYSEQQEFSDEVEAGKVIRTDPGAGTSSLKAGDTVTVYVSRGPEN | -0.0896
HMGTTTPPATRKGKVTSSFLNVRSGPSTANAKVAELKQNAVVTIYETSSNGWHRIGVNQWVIGTNIQE | -0.121
HMTVPNVVGQRILAAQDILKNLGLKVLVDTNLPNSQWGLRNVKSTNPGAGAVVRVGDTVTLIAR | 0.124
HMQEKQIIDGREFYIHQVERGITLYSIAKQYNVKVADIQAENPFLEAGLQPGQTLKIPLDKVETVQEIK | -0.17
HMHRTRNAERTRAAVLKAAAEVLAERGTGASLARIAEVAGVSKSGLLHHFANREQLIVALLED | -0.462
HMGASFITSSKDNAINIRESATTDSKVIETIKNGEILESTEKSGDWHKVTYYNSEIKKSFTGYIHNSQLK | -0.151
HMSMLGTEQRVLVLGPARKGEGFLMARTDNNRIVNFEGPLSLVDTMVRVKVTDVYPHSLGGQLL | -0.0321
